Results reported in patent US10925971B2, “Methods of treating PRLR positive breast cancer” (Regeneron Pharmaceuticals, Inc., priority 2016, dated 2021).
Read-outs that look alike come from different tables or passages of the source.

B1: H1H6958N2-DM1: anti-PRLR antibody H1H6958N2 conjugated to the maytansinoid DM1 through an SMCC linker (conjugate)
VH: QVQLVESGGGVVQPGRSLRLSCGASGFTFRNYGMQWVRQGPGKGLEWVTLISFDGNDKYYADSVKGRFTISRDNSKNTLFLQMNSLRTEDTAVYYCARGGDFDYWGQGTLVTVSS
VL: DIQMTQSPSSLSASVGDRVTITCRASQDIRKDLGWYQQKPGKAPKRLIYAASSLHSGVPSRFSGSGSGTEFTLTISSLQPEDFATYYCLQHNSYPMYTFGQGTKLEIK
B2: H1H6958N2: anti-PRLR antibody, receptor blocking, human IgG1 Fc form of H2M6958N2 of Table 1; HCVR/LCVR SEQ ID NOs 290/298 (antibody, V domains shown)
VH: QVQLVESGGGVVQPGRSLRLSCGASGFTFRNYGMQWVRQGPGKGLEWVTLISFDGNDKYYADSVKGRFTISRDNSKNTLFLQMNSLRTEDTAVYYCARGGDFDYWGQGTLVTVSS
VL: DIQMTQSPSSLSASVGDRVTITCRASQDIRKDLGWYQQKPGKAPKRLIYAASSLHSGVPSRFSGSGSGTEFTLTISSLQPEDFATYYCLQHNSYPMYTFGQGTKLEIK
B3: H1H6765P: fully human anti-PRLR antibody, human IgG1 Fc; HCVR/LCVR SEQ ID NOs 18/26 (antibody, V domains shown)
VH: EVQLVESGGGVVRPGGSLRLSCVGSGFSFDDHGMNWVRQGPGKGLEWVSGFNWNGGSTNYAESVKGRFTISRDNARNSLFLQMNSLRAEDTALYYCVRGRSGWFNDAFDVWGPGTMVTVSS
VL: EIVLTQSPGTLSLSPGERATLSCRASQTINSNYLAWYRQKPGQTPRLLIYGTSSRATGIPDRFSGSGSGTDFSLTISRLEPEDFAVFYCQQYAGLPTFGPGTKVDIK
B4: H1H6774P: fully human anti-PRLR antibody, human IgG1 Fc; HCVR/LCVR SEQ ID NOs 34/42 (antibody, V domains shown)
VH: EVQLVESGGGLAQPGGSLRLSCVASGFTFSTYWMSWVRQAPGKGLDWVGNIKQDGSEQNYVDSVRGRFTISRDNAKNSLFLQMNSLRAEDTGVYYCATLLTKGDYWGQGTLVTVSS
VL: DIQMTQSPSSLSASVGDSVTITCRASQDISNYLDWFQQKPGKAPKSLIYAASILQGGVPSRFSGSGYGTDFTLTISSLQPEDFATYYCRQYKTYPFTFGPGTKVDIK
B5: H1H6782P: fully human anti-PRLR antibody, non-blocking; HCVR/LCVR SEQ ID NOs 66/74 (antibody, V domains shown)
VH: EVQLVESGGGLVQPGRSLRLSCAASGFTFDDYAMHWVRQAPGKGLEWVSGIIWNSGHIGYGDSVKGRFTISRDNAKKSLYLQMNSLRAEDTALYYCARDSGRYQSYFDYWGQGTLVTVSS
VL: DIQMTQSPSTLSASVGDRVTITCRASHIISSWLAWYQQKPGKAPKVLIFKASSLESGVPSRFSGSGSGTEFTLTISSLQPDDFATYYCQQYNTYSRTFGQGTKVEIK
B6: H1H6795P: fully human anti-PRLR antibody, human IgG1 Fc; HCVR/LCVR SEQ ID NOs 162/170 (antibody, V domains shown)
VH: QVQLVQSGAEVKKPGASVKVSCKASGYTFGTSGITWVRQAPGQGLEWMGWSSAYNGKTDYAQKFQDRVTMTTDTSTTTGYMEMRSLTSDDTAVYYCTTVVRRPFDFWGQGTLVTVSS
VL: DIQMTQSPSSLSASVGDRVTITCRASQDINNFLAWFQQKPGKAPKSLIYAASSLQSGVPSKFSGGGSGTDFALTISSLQPEDFATYYCQQYSSYPITFGQGTRLEIK
B7: H1H6797P: fully human anti-PRLR antibody, human IgG1 Fc; HCVR/LCVR SEQ ID NOs 178/186 (antibody, V domains shown)
VH: EVQLVESGGGLVQPGGSLRLSCIVSGFTFSGSWMSWVRQLPGKGLEWVANIKEDGSDSYYVDSVEGRFTISRDNAKSSLYLQMNSLRVDDTAVYFCARARTVPLHYWGQGTLVTVSS
VL: DIQMTQSPSTLSASVGDRVTITCRASQSINIWLAWYQQKPGKAPKLLIYRASYLESGVPSSFAGGGSGTEFTLTISSLQPDDFGTYYCQHYNSYPFTFGQGTKLEIK

Legend:
T47Dv11 tumors = assay: T47Dv11 breast tumor xenograft, single agent and combination with fulvestrant; type: in vivo, C.B.-17 SCID mice
Description: The T47Dv11 model was used to assess the activity of H1H6958N2-DM1 in a model with significant levels of endogenous PRLR. […] Initially, 10×10^6 parental T47D cells were implanted subcutaneously (SC) into the left flank of female C.B.-17 SCID mice (Taconic, Hudson N.Y.). Tumors were supplemented with a 90-day release 1.7 mg estrogen pellet (Innovative Research America). Where T47D tumors were observed, they were excised and cut into 3 mm fragments and subsequently implanted into the left flank of separate female C.B.-17 SCID mice. Subsequent passaging was performed until a large tumor was disaggregated into a single cell suspension. The cells (named T47Dv11) from this tumor were then cultured in vitro and expanded. […] For efficacy studies, mice were implanted with 7.5×10^6 T47Dv11 cells into the left flank of female C.B.-17 SCID mice supplemented with a 90-day release 0.72 mg/pellet estrogen pellet. For MCF7 and MCF7/PRLR tumor xenografts, 2×10^7 MCF7/PRLR cells were implanted SC into the left mammary fat pad of female NCr nude mice (7-8 weeks old) supplemented with 90-day release 0.72 mg/pellet estrogen pellets. Tumors were measured with calipers twice a week for the duration of each study. Tumor volume was calculated using the formula TV=(length×width^2)/2.
After T47Dv11 tumors reached an average volume of ˜150-200 mm^3 (14-16 days post implantation), mice were randomized into treatment groups (n=8-9 mice/group) and received a single dose or three once-weekly doses of H1H6958N2-DM1, control ADC, or vehicle control, administered systemically by intravenous tail-vein injection. […] Tumor size and body weight were measured in vivo twice per week throughout the duration of the study.
Next, the combination of H1H6958N2-DM1 with the SERD fulvestrant was tested in the T47Dv11 xenograft model. Here, the activity of either agent at partially effective doses was compared against the activity of the agents in combination. First, a dose titration study of weekly administration of fulvestrant was performed in order to establish its single agent activity (FIG. 4).
For the subcutaneous tumors, average tumor size as well as tumor growth inhibition relative to the Vehicle treated group were calculated for each group. Tumors were measured with calipers twice a week until the average size of the vehicle group reached 1200 mm^3. Tumor size was calculated using the formula (length×width^2)/2. For all studies, tumor growth inhibition was calculated according to the following formula: (1−((Tfinal−Tinitial)/(Cfinal−Cinitial)))*100, where T (treated group) and C (control group) represent the mean tumor mass on the day the vehicle group reached 1000 mm^3.

T47D#11 tumors = type: in vivo, CB17 SCID mice; conditions: for Average Tumor Growth Inhibition (%) / Final Tumor size mm^3 (mean ± SEM): T47D#11 tumors, SCID mice, Day 66
Source text: Briefly, 20×10^6 MCF7/PRLR cells (ATCC HTB-22 transfected with full length hPRLR as previously described) were implanted subcutaneously into the left mammary fat pad of female NCr nude mice. In other studies, 10×10^6 PC3/PRLR (ATCC CRL-1435 transfected with full length hPRLR as previously described) were implanted subcutaneously into the left flank of male SCID mice. Additionally, 10×10^6 parental T47D (ATCC HTB-133) or 7.5×10^10 T47D #11 cells (ATCC HTB-133 serially passaged in vivo as described below) were subcutaneously implanted into the left flank of female CB17 SCID mice. All mice were obtained from Taconic (Hudson, N.Y.). Each bolus of cells was supplemented with a 90-day estrogen release pellet (1.7 mg/pellet; Innovative Research America, Sarasota Fla.). […] Control reagents included PBS vehicle, free methyl-disulfide DM1 (DM1-SMe) and isotype Control 1-DM1.
In multi-dose studies, mice were dosed once a week for a total of three weeks with tumor volumes and body weights being monitored twice weekly throughout the study. Test ADCs were dosed at 5 and/or 15 mg/kg in the multi-dose studies. In single-dose studies, mice received a single dose of test ADC, and tumor volumes and body weights were monitored twice weekly throughout the study. Test ADCs were dosed at 1, 2.5, 5, and 15 mg/kg in the single-dose studies. Average tumor size as well as tumor growth inhibition relative to the vehicle treated group were calculated for each group. Tumors were measured with calipers twice a week until the average size of the vehicle group reached 1000 mm^3. Tumor size was calculated using the formula (length×width^2)/2. Tumor growth inhibition was calculated according to the following formula: (1−((Tfinal−Tinitial)/(Cfinal−Cinitial)))*100, where T (treated group) and C (control group) represent the mean tumor mass on the day the vehicle group reached 1000 mm^3. […] Results are summarized in Tables 21-25 (multi-dose) and Table 26 (single dose). (NT=not tested in the particular experiment shown).

[1] = tested on: human PRLR in HEK293/hPRLR/STAT5-Luc cells; assay: STAT5-Luc reporter assay, blocking of PRL-mediated receptor activation (5 nM PRL); type: cell-based; conditions: read-out: IC50 of Blocking 5 nM PRL; 5 nM constant PRL, 6 hr at 37° C.
Source text: The ability of anti-PRLR antibodies to block prolactin (PRL)-mediated receptor activation was examined in a luciferase-based reporter assay. The endocrine hormone PRL binds to the extracellular domain of its cognate receptor PRLR, triggering rapid homodimerization and activating several downstream signaling cascades.
In this example, an engineered cell line was used to determine the ability of anti-PRLR antibodies to block ligand activation of the PRLR receptor. Briefly, HEK293/hPRLR/STAT5-Luc cell lines with stable incorporation of a human PRLR expression cassette and the STAT5-dependent luciferase reporter were generated via sequential rounds of Lipofectamine® 2000-mediated transfection (LifeTechnologies, Carlsbad, Calif.). Cells were selected for at least two weeks in the presence of 500 μg/mL G418 (hPRLR) and 100 μg/mL hygromycin B (STAT5-Luc). The STAT5-Luc assay utilized 2×10^5 HEK293/hPRLR/STAT5-Luc cells seeded in complete growth medium on PDL-coated 96 well plates grown overnight at 37° C., 5% CO2. To generate antibody inhibition curves, cells were incubated (6 hr at 37° C.) with serially diluted anti-human PRLR antibodies (100 nM to 24 pM) in the presence of 5 nM constant PRL before recording signal. PRL dose response curves were generated by the addition of serially diluted PRL (100 nM to 24 pM) to cells and recording signal after a 6 hr (37° C.) incubation in the absence of antibodies. The ability of the antibodies to activate PRLR in the absence of ligand was also assessed.
Luciferase activity was measured with ONE-Glo™ reagent (Promega, Madison, Wis.). Relative light units (RLUs) were measured on a Victor luminometer (Perkin Elmer, Shelton, Conn.). EC50/IC50 values were determined from a four-parameter logistic equation over an 8-point response curve using GraphPad Prism. Percent blocking and percent activation are reported for the highest antibody dose.

Row | Molecule | Average Tumor Growth Inhibition (%) (T47D#11 tumors; multi-dose 15 mg/kg) | Final Tumor size mm^3 (mean ± SEM) (T47D#11 tumors; multi-dose 15 mg/kg) | IC50 [1] | further results
1 | B1 | 112% | 44 ± 5 mm^3 |  | Final Tumor Volume (mean ± SD) (T47Dv11 tumors; T47DvII tumors in SCID mice, Day 70, 2.5 mg/kg): 386 ± 249 mm^3; anti-tumor activity (T47Dv11 tumors; combination study, individual treatment 2.5 mg/kg single dose): Significant anti-tumor activity; tumor growth (T47Dv11 tumors; single dose 2.5 or 5 mg/kg): significantly inhibited tumor growth; tumor growth (T47Dv11 tumors; three doses of 5 or 15 mg/kg): tumor regression; Average Tumor Growth Inhibition (%) (T47D#11 tumors; multi-dose 5 mg/kg): 102%; Final Tumor size mm^3 (mean ± SEM) (T47D#11 tumors; multi-dose 5 mg/kg): 168 ± 19 mm^3; T47D #11 tumor growth (T47D#11 tumors; repeat dosing 5 and 15 mg/kg): potently inhibited tumor growth
2 | B2 | −3% | 1259 ± 122 mm^3 |  | tumor growth, controls (T47Dv11 tumors; T47Dv11 model, dose not stated): no effect on tumor growth
3 | B3 | −3% | 1278 ± 164 mm^3 |  | 
4 | B4 |  |  | > 100 nM | 
5 | B5 | −29% | 1537 ± 111 mm^3 |  | 
6 | B6 |  |  | > 100 nM | 
7 | B7 |  |  | > 100 nM | 
